Measured values from PMC9839807 (2022).

B1: DACT1 (dishevelled binding antagonist of beta catenin 1), wildtype, Myc-tagged [human] / DVL2 (dishevelled segment polarity protein 2), Flag(3x)-tagged [not stated] (parent complex)
chain 1: MKPSPAGTAKELEPPAPARGEQRTAEPEGRWREKGEADTERQRTRERQEATLAGLAELEYLRQRQELLVRGALRGAGGAGAAAPRAGELLGEAAQRSRLEEKFLEENILLLRKQLNCLRRRDAGLLNQLQELDKQISDLRLDVEKTSEEHLETDSRPSSGFYELSDGASGSLSNSSNSVFSECLSSCHSSTCFCSPLEATLSLSDGCPKSADLIGLLEYKEGHCEDQASGAVCRSLSTPQFNSLDVIADVNPKYQCDLVSKNGNDVYRYPSPLHAVAVQSPMFLLCLTGNPLREEDRLGNHASDICGGSELDAVKTDSSLPSPSSLWSASHPSSSKKMDGYILSLVQKKTHPVRTNKPRTSVNADPTKGLLRNGSVCVRAPGGVSQGNSVNLKNSKQACLPSGGIPSLNNGTFSPPKQWSKESKAEQAESKRVPLPEGCPSGAASDLQSKHLPKTAKPASQEHARCSAIGTGESPKESAQLSGASPKESPSRGPAPPQENKVVQPLKKMSQKNSLQGVPPATPPLLSTAFPVEERPALDFKSEGSSQSLEEAHLVKAQFIPGQQPSVRLHRGHRNMGVVKNSSLKHRGPALQGLENGLPTVREKTRAGSKKCRFPDDLDTNKKLKKASSKGRKSGGGPEAGVPGRPAGGGHRAGSRAHGHGREAVVAKPKHKRTDYRRWKSSAEISYEEALRRARRGRRENVGLYPAPVPLPYASPYAYVASDSEYSAECESLFHSTVVDTSEDEQSNYTTNCFGDSESSVSEGEFVGESTTTSDSEESGGLIWSQFVQTLPIQTVTAPDLHNHPAKTFVKIKASHNLKKKILRFRSGSLKLMTTV
chain 2: MAGSSTGGGGVGETKVIYHLDEEETPYLVKIPVPAERITLGDFKSVLQRPAGAKYFFKSMDQDFGVVKEEISDDNARLPCFNGRVVSWLVSSDNPQPEMAPPVHEPRAELAPPAPPLPPLPPERTSGIGDSRPPSFHPNVSSSHENLEPETETESVVSLRRERPRRRDSSEHGAGGHRTGGPSRLERHLAGYESSSTLMTSELESTSLGDSDEEDTMSRFSSSTEQSSASRLLKRHRRRRKQRPPRLERTSSFSSVTDSTMSLNIITVTLNMEKYNFLGISIVGQSNERGDGGIYIGSIMKGGAVAADGRIEPGDMLLQVNDMNFENMSNDDAVRVLRDIVHKPGPIVLTVAKCWDPSPQAYFTLPRNEPIQPIDPAAWVSHSAALTGTFPAYPGSSSMSTITSGSSLPDGCEGRGLSVHTDMASVTKAMAAPESGLEVRDRMWLKITIPNAFLGSDVVDWLYHHVEGFPERREARKYASGLLKAGLIRHTVNKITFSEQCYYVFGDLSGGCESYLVNLSLNDNDGSSGASDQDTLAPLPGATPWPLLPTFSYQYPAPHPYSPQPPPYHELSSYTYGGGSASSQHSEGSRSSGSTRSDGGAGRTGRPEERAPESKSGSGSESEPSSRGGSLRRGGEASGTSDGGPPPSRGSTGGAPNLRAHPGLHPYGPPPGMALPYNPMMVVMMPPPPPPVPPAVQPPGAPPVRDLGSVPPELTASRQSFHMAMGNPSEFFVDVM

Variants of: B1
Test: co-immunoprecipitation (IP: anti-Myc), band ratio quantified; parent: 1; read off a plot

Compared with chain 1 G644D, chain 1 R568K is lower in response: roughly 0.72 for the first, roughly 0.69 for the second.

Compared with chain 1 K630N, chain 1 L591F is higher in response: roughly 0.68 for the first, roughly 0.7 for the second.

First: chain 1 L823R
Second: chain 1 P669A
The response of the first is lower: roughly 0.6 for the first, roughly 0.69 for the second.

Work on chain 1 T367K yielded a response of roughly 0.72.
